Measured values reported in patent US20180265915A1, “TRANSCRIPTION FACTOR DECOYS” (priority 2008, published 2018).

How the values were obtained:
S. aureus ATCC 6538NA = assay: Fur TFD growth assay in non-iron-limiting and iron-limiting media; type: cell-based, Staphylococcus aureus; settings: 1 nM TFD; DOTAP, 60 nM gramicidin
Procedure: S. aureus ATCC 6538NA cultures were grown and maintained in BHI media (Becton Dickenson). Frozen stocks were prepared by mixing equal volumes of a culture in early exponential growth (OD of 0.3 at A600) with 50% glycerol and freezing at −80° C. BHI was the media used for non-iron limiting conditions and NRPMI, which had been prepared as previously described (Skaar et al. 2004), for iron-limiting growth conditions.
A stock solution of gramicidin (Sigma) was freshly prepared by dissolving 21 mg in 1 ml methanol, diluted prior to use in water and further diluting 1/100 in growth medium to give a final concentration of 60 nM. Supplemented media was inoculated 1/100 with the frozen S. aureus stock and incubated at room temperature for 10 min. TFD-DOTAP complexes were formed by mixing 1 ug of TFD with 2 μg of DOTAP (Roche) and incubating at room temperature for 10 min on the bench. The TFD complex was then mixed with inoculated medium, aliquoted into 96 well flat-bottomed plates and growth was analysed by culturing at 37° C. with shaking in a BioTek plate reader.
To achieve transfection, TFDs were mixed with the commercially available lipid preparation DOTAP to form a stable complex and shield the negative charge of the phosphate backbone. The TFD-DOTAP complex was then mixed with S. aureus in BHI, a non-iron limiting medium, which had been supplemented with 60 nM gramicidin. […]

S. aureus = assay: Quantification of TFD number by real-time qPCR; type: cell-based, Staphylococcus aureus; settings: in the presence of the transfection reagents; BHI
Procedure: Cells from individual wells were washed twice in PBS (phosphate buffered saline) and resuspended in 100 μl water. 1 μl of each sample was used in each qPCR reaction, mixing DNA standards or samples with primers to either amplify the TFD (Tef and Ter; SEQ ID NOs 1 & 2) or 16S rRNA (stypF, 5′-ACGGTCTTGCTGTCACTTATA-3′ (SEQ ID NO: 36); stypR, 5′-TACACATATGTTCTTCCCTAATAA-3′ (SEQ ID NO: 37)) in 12.5 ul of SYBR Green DNA mix supplemented with 0.5 μl of ROX (Invitrogen). The resultant data was used to calculate the number of TFDs present per genome.

[1] = tested on: methicillin-resistant strains (MRSA); assay: Sig TFD growth assay on MRSA clinical isolates; type: cell-based, Staphylococcus aureus; settings: 10 nM TFD; DOTAP, 60 nM Gramicidin
Procedure: Cholesterol/Cy5-labeled decoy polynucleotides were prepared as in Example 5.1. Typically 1 μg of Sig TFD was then complexed with 0.3 μl of the liposomal transfection reagent DOTAP (1,2-dioleoyl-3-trimethylammonium propane; Roche) and incubated at room temperature for 10 min. The assays to determine their effect on growth of bacterial cells were performed using 96 well plates, each well containing 200 μl of broth consisting of BHI media (Becton Dickinson) supplemented with 60 nM Gramicidin (Sigma Corporation. Cat# G5002). 1 μl of various concentrations of a Cholesterol/Cy5-labeled decoy complexed with TFD were added to each well and the effect on bacterial growth of clinical isolates of S. aureus that had been determined to be methicillin-resistant strains (MRSA) was monitored. Growth was monitored by measuring absorbance of the broth at time intervals during incubation. The plates were incubated at 37° C. with shaking and absorbance readings (at 450 nM) were taken using a plate reader.

EMRSA15 = assay: Lag-time growth assay with antibiotics on EMRSA15; type: cell-based, Staphylococcus aureus; settings: 10 nM TFD
Procedure: Sig dumbbell TFD was prepared as described in Example 9.1 (see below). A growth assay was carried out as described in Example 5.2 with a well-characterised MRSA strain, EMRSA15.
For the cultures treated with the Sig TFD, the lag-time is the delay in growth compared to that seen with the Control TFD in the presence of antibiotic.
Lagtime is defined as the time that growth is delayed (in comparison to a mock-transfected culture) due to treatment of the TFD.

[2] = tested on: clinically-isolated MRSA strain MRSA-5; assay: Dumbbell Sig TFD growth assay on a clinically-isolated MRSA strain; type: cell-based, Staphylococcus aureus; settings: 10 nM TFD, dumbbell configuration
Procedure: A growth assay was performed as described in Example 5.1 using the Sig TFD in its dumbbell configuration and a clinically-isolated MRSA strain.

K. pneumoniae [3] = assay: Sigma 54 TFD growth assay, cell penetrating peptide transfection; type: cell-based, Klebsiella pneumoniae; settings: 10 nM TFD; M9 media; complexed with cell penetrating peptide
Procedure: Growth assays were performed as described in Section 4.1 with the difference being that the media used was M9 media (Sambrook et al (1989) Molecular Cloning. 2nd Edition vol. 3 p.A3). The media was not supplemented with any co-transfectant.
Transfection was achieved by complexing the TFD with a cell penetrating peptide. The peptide consisted of two portions: a linear chain of nine D-arginines and a previously described peptide sequence found to be capable of penetrating the membrane of K. pneumoniae (Vaara, Antimicrobial Agents and Chemotherapy (1996) 40:1801). The positively charged arginines (R9) serve to bind the phosphate backbone of the TFD through a charge interaction. The use of such R9 tails to complex transfecting moieties to transfect bacteria has been described previously (Kim, Molecular Therapy (2006) 14:343). The entire sequence of the peptide used was:
TFDs were mixed with increasing amounts of IKFLKFLKKL-R9 peptide in a TE based buffer supplemented with 5% glucose. The mixture was incubated at room temperature for 1 hour and then either used directly in transfections or analysed by agarose gel electrophoresis. Typically the minimum amount of IKFLKFLKKL-R9 was used that caused the complex with DNA not to run in the gel; i.e. the charge of the nucleic acid backbone had been neutralised by binding of poly-arginine. […]

K. pneumoniae [4] = assay: KP_Sig TFD growth assay in vitro; type: cell-based, Klebsiella pneumoniae; settings: PCR_TFD, transfected using a cell penetrating peptide
Excerpt: Cells were transfected as described in Example 13, using a cell penetrating peptide. […] The two controls used were: untreated cells (K. pneumoniae) and a control TFD consisting of a scrambled sequence.

B1: Control TFD: unrelated sequence of similar nucleotide composition that does not occur in the S. aureus genome, SEQ ID NOs: 34 & 35 (nucleic acid, listed as Mycobacterium smegmatis)
chain 1: TGGCCACGGATCCGGGTGACTGCGGGTCCGTA
chain 2: ACGGACCCGCAGTCACCCGGATCCGTGGCCAA
modifications: further chemistry not given here
growth of S. aureus in BHI, non-iron limiting medium (S. aureus ATCC 6538NA): reduction of the S. aureus growth rate | number of TFDs detected per genome (S. aureus): 5340 TFDs per genome | effect on growth of MRSA strains in BHI medium [1]: no effect on bacterial growth | Lagtime (EMRSA15; Ciprofloxacin 0.5 mg/L (text: 0.5 mg/ml)): 0.3 h | Lagtime (EMRSA15; Erythromycin 0.5 mg/L (text: 0.5 mg/ml)): -0.3 h | Lagtime (EMRSA15; Methicillin 2 mg/L (text: 2 mg/ml)): 0.2 h | inhibition of cell growth of clinically-isolated MRSA strain [2]: could not | inhibition of growth of K. pneumoniae culture (K. pneumoniae [3]): no inhibition was seen | effect on K. pneumoniae cell growth in vitro (K. pneumoniae [4]): no effect on cell growth
